Assay results published in PMC5655238.

Target: Bcl-2 (UniProt P10415)
Assay: anti-HA IP, Bcl-2 blot
Conditions: reference: HA-Beclin-1 wild type; sites T119

Beclin-1 (from UniProt Q14457) HA-Beclin-1 T119A
binding against the reference: stronger
